Experimental data: patent US20230265151A1, “GIP/GLP1 CO-AGONIST COMPOUNDS” (priority 2020, published 2023)
Residue numbers refer to the chain shown, from its start.

T1: human GIP receptor (human, UniProt P48546 22-466)
T1 construct: whole, on cells; also called hGIPR; human glucose-dependent insulinotropic polypeptide receptor
T1 sequence (looked up): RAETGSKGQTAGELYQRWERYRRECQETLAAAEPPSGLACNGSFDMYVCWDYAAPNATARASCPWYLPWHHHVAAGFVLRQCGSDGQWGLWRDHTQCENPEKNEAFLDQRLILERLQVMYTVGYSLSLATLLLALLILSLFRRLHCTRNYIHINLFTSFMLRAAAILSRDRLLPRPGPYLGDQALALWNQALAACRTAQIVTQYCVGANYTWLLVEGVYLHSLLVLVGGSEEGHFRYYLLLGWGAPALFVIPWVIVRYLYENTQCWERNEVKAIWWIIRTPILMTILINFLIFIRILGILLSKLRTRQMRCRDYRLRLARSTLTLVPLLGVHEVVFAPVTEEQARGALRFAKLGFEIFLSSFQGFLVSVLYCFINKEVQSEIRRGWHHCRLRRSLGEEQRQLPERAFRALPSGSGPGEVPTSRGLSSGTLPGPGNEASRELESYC

B1: Y-Aib-EGT-αMeF(2F)-TSD-αMeL-SI-aMeL-LD-Orn-K((2-[2-(2-Amino-ethoxy)-ethoxy]-acetyl)2-(γ-Glu)-CO-(CH2)12-CO2H)AQ-Aib-EFI-(D-Glu)-αMeY-LIEGGK((2-[2-(2-Amino-ethox … (peptide)
peptide: YXEGTXTSDXSIXLDXKAQXEFIXXLIEGGKSSGAPPPS
modifications: Aib2, αMeF(2F)6, αMeL10, αMeL13, Orn16, K17(Z1), Aib20, D-Glu24, αMeY25, K31(Z1), C-term NH2; Z1=AEEA2-(γ-Glu)-CO-(CH2)12-CO2H
B2: Y-Aib-EGT-αMeF(2F)-TSD-4Pal-SI-αMeL-LD-Orn-K((εK)-(γ-Glu)-(γ-Glu)-CO-(CH2)12-CO2H)AQ-Aib-EFI-(D-Glu)-αMeY-LIEGGK((εK)-(γ-Glu)-(γ-Glu)-CO-(CH2)12-CO2H)SSGAPPPS-N … (peptide)
peptide: B1 peptide
modifications: Aib2, αMeF(2F)6, 4Pal10, αMeL13, Orn16, K17(Z1), Aib20, D-Glu24, αMeY25, K31(Z1), C-term NH2; Z1=(εK)-(γ-Glu)-(γ-Glu)-CO-(CH2)12-CO2H
B3: Y-Aib-EGT-αMeF(2F)-TSD-4Pal-SI-αMeL-LD-Orn-K((2-[2-(2-Amino-ethoxy)-ethoxy]-acetyl)-(εK)-(γ-Glu)-CO-(CH2)12-CO2H)AQ-Aib-EFI-(D-Glu)-αMeY-LIEGGK((2-[2-(2-Amino-e … (peptide)
peptide: B1 peptide
modifications: Aib2, αMeF(2F)6, 4Pal10, αMeL13, Orn16, K17(Z1), Aib20, D-Glu24, αMeY25, K31(Z1), C-term NH2; Z1=AEEA-(εK)-(γ-Glu)-CO-(CH2)12-CO2H
B4: Y-Aib-EGT-αMeF(2F)-TSD-4Pal-SI-αMeL-LD-Orn-K((γ-Glu)-(2-[2-(2-Amino-ethoxy)-ethoxy]-acetyl)-CO-(CH2)12-CO2H)AQ-Aib-EFI-(D-Glu)-αMeY-LIEGGK((γ-Glu)-(2-[2-(2-Amin … (peptide)
peptide: B1 peptide
modifications: Aib2, αMeF(2F)6, 4Pal10, αMeL13, Orn16, K17(Z1), Aib20, D-Glu24, αMeY25, K31(Z1), C-term NH2; Z1=(γ-Glu)-AEEA-CO-(CH2)12-CO2H
B5: Y-Aib-EGT-αMeF(2F)-TSD-4Pal-SI-αMeL-LD-Orn-K((εK)-(εK)-(γ-Glu)-CO-(CH2)12-CO2H)AQ-Aib-EFI-(D-Glu)-αMeY-LIEGGK((εK)-(εK)-(γ-Glu)-CO-(CH2)12-CO2H)SSGAPPPS-NH2 (peptide)
peptide: B1 peptide
modifications: Aib2, αMeF(2F)6, 4Pal10, αMeL13, Orn16, K17(Z1), Aib20, D-Glu24, αMeY25, K31(Z1), C-term NH2; Z1=(εK)-(εK)-(γ-Glu)-CO-(CH2)12-CO2H
B6: Y-Aib-EGT-αMeF(2F)-TSD-4Pal-SI-αMeL-LD-Orn-K((2-[2-(2-Amino-ethoxy)-ethoxy]-acetyl)2-(εK)-CO-(CH2)12-CO2H)AQ-Aib-EFI-(D-Glu)-αMeY-LIEGGK((2-[2-(2-Amino-ethoxy)- … (peptide)
peptide: B1 peptide
modifications: Aib2, αMeF(2F)6, 4Pal10, αMeL13, Orn16, K17(Z1), Aib20, D-Glu24, αMeY25, K31(Z1), C-term NH2; Z1=AEEA2-(εK)-CO-(CH2)12-CO2H
B7: Y-Aib-EGT-αMeF(2F)-TSDY-Aib-I-αMeL-LD-Orn-K((2-[2-(2-Amino-ethoxy)-ethoxy]-acetyl)2-(γ-Glu)-CO-(CH2)12-CO2H)AQ-Aib-EFI-(D-Glu)-αMeY-LIEGGK((2-[2-(2-Amino-ethoxy … (peptide)
peptide: B1 peptide with X10Y, S11X
modifications: Aib2, αMeF(2F)6, Aib11, αMeL13, Orn16, K17(Z1), Aib20, D-Glu24, αMeY25, K31(Z1), C-term NH2; Z1=AEEA2-(γ-Glu)-CO-(CH2)12-CO2H
B8: Y-Aib-EGT-αMeF(2F)-TSD-Ac5c-SI-αMeL-LD-Orn-K((2-[2-(2-Amino-ethoxy)-ethoxy]-acetyl)2-(γ-Glu)-CO-(CH2)12-CO2H)AQ-Aib-EFI-(D-Glu)-αMeY-LIEGGK((2-[2-(2-Amino-ethox … (peptide)
peptide: B1 peptide
modifications: Aib2, αMeF(2F)6, Ac5c10, αMeL13, Orn16, K17(Z1), Aib20, D-Glu24, αMeY25, K31(Z1), C-term NH2; Z1=AEEA2-(γ-Glu)-CO-(CH2)12-CO2H
B9: Y-Aib-EGT-αMeF-TSD-4Pal-SI-αMeL-LD-Orn-K((2-[2-(2-Amino-ethoxy)-ethoxy]-acetyl)2-(γ-Glu)-CO-(CH2)12-CO2H)AQ-Aib-E-αMeF-I-(D-Glu)-αMeY-LIEGGK((2-[2-(2-Amino-etho … (peptide)
peptide: B1 peptide with F22X
modifications: Aib2, αMeF6, 4Pal10, αMeL13, Orn16, K17(Z1), Aib20, αMeF22, D-Glu24, αMeY25, K31(Z1), C-term NH2; Z1=AEEA2-(γ-Glu)-CO-(CH2)12-CO2H
B10: Y-Aib-EGT-αMeF(2F)-TSDY-aMeS-I-αMeL-LD-Orn-K((2-[2-(2-Amino-ethoxy)-ethoxy]-acetyl)2-(γ-Glu)-CO-(CH2)12-CO2H)AQ-Aib-EFI-(D-Glu)-αMeY-LIEGGK((2-[2-(2-Amino-ethox … (peptide)
peptide: B1 peptide with X10Y, S11X
modifications: Aib2, αMeF(2F)6, αMeS11, αMeL13, Orn16, K17(Z1), Aib20, D-Glu24, αMeY25, K31(Z1), C-term NH2; Z1=AEEA2-(γ-Glu)-CO-(CH2)12-CO2H
B11: Y-Aib-EGT-αMeF(2F)-TSD-4Pal-SI-αMeL-LD-Orn-K((εK)-(γ-Glu)-CO-(CH2)12-CO2H)AQ-Aib-EFI-(D-Glu)-αMeY-LIEGGK((εK)-(γ-Glu)-CO-(CH2)12-CO2H)SSGAPPPS-NH2 (peptide)
peptide: B1 peptide
modifications: Aib2, αMeF(2F)6, 4Pal10, αMeL13, Orn16, K17(Z1), Aib20, D-Glu24, αMeY25, K31(Z1), C-term NH2; Z1=(εK)-(γ-Glu)-CO-(CH2)12-CO2H
B12: Y-Aib-EGT-αMeF(2F)-TSD-4Pal-SI-αMeL-LD-Orn-K((εK)-(2-[2-(2-Amino-ethoxy)-ethoxy]-acetyl)-(γ-Glu)-CO-(CH2)12-CO2H)AQ-Aib-EFI-(D-Glu)-αMeY-LIEGGK((εK)-(2-[2-(2-Am … (peptide)
peptide: B1 peptide
modifications: Aib2, αMeF(2F)6, 4Pal10, αMeL13, Orn16, K17(Z1), Aib20, D-Glu24, αMeY25, K31(Z1), C-term NH2; Z1=(εK)-AEEA-(γ-Glu)-CO-(CH2)12-CO2H
B13: Y-Aib-EGT-αMeF(2F)-TSDK((2-[2-(2-Amino-ethoxy)-ethoxy]-acetyl)3-(γ-Glu)-CO-(CH2)10-CH3)-Aib-I-αMeL-LD-Orn-K((2-[2-(2-Amino-ethoxy)-ethoxy]-acetyl)3-(γ-Glu)-CO-( … (peptide)
peptide: B1 peptide with X10K, S11X, K31P
modifications: Aib2, αMeF(2F)6, K10(Z1), Aib11, αMeL13, Orn16, K17(Z1), Aib20, D-Glu24, αMeY25, C-term NH2; Z1=AEEA3-(γ-Glu)-CO-(CH2)10-CH3
B14: Y-Aib-EGT-αMeF(2F)-TSD-4Pal-SI-αMeL-LD-Orn-K((2-[2-(2-Amino-ethoxy)-ethoxy]-acetyl)2-CO-(CH2)12-CO2H)AQ-Aib-K((2-[2-(2-Amino-ethoxy)-ethoxy]-acetyl)2-CO-(CH2)12 … (peptide)
peptide: B1 peptide with E21K, K31P
modifications: Aib2, αMeF(2F)6, 4Pal10, αMeL13, Orn16, K17(Z1), Aib20, K21(Z1), D-Glu24, αMeY25, C-term NH2; Z1=AEEA2-CO-(CH2)12-CO2H
B15: Y-Aib-EGT-αMeF(2F)-TSD-4Pal-SI-αMeL-LD-Orn-K((2-[2-(2-Amino-ethoxy)-ethoxy]-acetyl)2-(γ-Glu)-CO-(CH2)14-CH3)AQ-Aib-EFI-(D-Glu)-αMeY-LIK((2-[2-(2-Amino-ethoxy)-e … (peptide)
peptide: B1 peptide with E28K, K31P
modifications: Aib2, αMeF(2F)6, 4Pal10, αMeL13, Orn16, K17(Z1), Aib20, D-Glu24, αMeY25, K28(Z1), C-term NH2; Z1=AEEA2-(γ-Glu)-CO-(CH2)14-CH3
B16: Y-Aib-EGT-αMeF(2F)-TSD-4Pal-SI-αMeL-LD-Orn-IAQ-Aib-EFI-(D-Glu)-αMeY-LIK((2-[2-(2-Amino-ethoxy)-ethoxy]-acetyl)2-(γ-Glu)-CO-(CH2)14-CH3)GGK((2-[2-(2-Amino-ethoxy … (peptide)
peptide: B1 peptide with K17I, E28K
modifications: Aib2, αMeF(2F)6, 4Pal10, αMeL13, Orn16, Aib20, D-Glu24, αMeY25, K28(Z1), K31(Z1), C-term NH2; Z1=AEEA2-(γ-Glu)-CO-(CH2)14-CH3
B17: Y-Aib-EGT-αMeF(2F)-TSD-4Pal-SI-αMeL-LD-Orn-K((2-[2-(2-Amino-ethoxy)-ethoxy]-acetyl)2-(γ-Glu)-CO-(CH2)10-CH3)AQ-Aib-K((2-[2-(2-Amino-ethoxy)-ethoxy]-acetyl)2-(γ- … (peptide)
peptide: B1 peptide with E21K, K31P
modifications: Aib2, αMeF(2F)6, 4Pal10, αMeL13, Orn16, K17(Z1), Aib20, K21(Z1), D-Glu24, αMeY25, C-term NH2; Z1=AEEA2-(γ-Glu)-CO-(CH2)10-CH3

Each binder was assayed against T2, human GLP-1 receptor (human, UniProt P43220 24-463) (assay: SPA competition vs [125I]-GLP-1, hGLP-1R membranes).
T2 construct: whole, on cells; also called hGLP-1R; human glucagon-like peptide-1 receptor
Method: The binding buffer contains 25 mM HEPES, pH 7.4, 2.5 mM CaCl₂, 1 mM MgCl₂, 0.1% (w/v) bacitracin, 0.003% (w/v) TWEEN®-20, and Roche Complete™ Protease Inhibitors without EDTA.
(§1) Data are analyzed using four-parameter (curve maximum, curve minimum, IC₅₀, Hill slope) nonlinear regression routines (Genedata Screener, version 12.0.4, Genedata AG, Basal, Switzerland). […] Values for Kᵢ are reported as the geometric mean, with error expressed as the standard error of the mean (SEM) and n is equal to the number of independent replicates (determined in assays performed on different days). Geometric Means are calculated as follows: […]

Binder	Ki [nM]
B1	1.64
B2	1.69
B3	1.38
B4	2.02
B5	1.6
B6	1.34
B7	0.876
B8	1.46
B9	29
B10	1.21
B11	0.803
B12	1.47
B13	0.198
B14	0.881
B15	0.251
B16	0.867
B17	0.25

The binders below were run against T1, human GIP receptor (assay: SPA competition vs [125I]-GIP, hGIPR membranes).
Method: The binding buffer contains 25 mM HEPES, pH 7.4, 2.5 mM CaCl₂, 1 mM MgCl₂, 0.1% (w/v) bacitracin, 0.003% (w/v) TWEEN®-20, and Roche Complete™ Protease Inhibitors without EDTA. […] Plates are sealed and mixed on a plate shaker (setting 6) for 1 minute and read with a PerkinElmer Trilux MicroBeta® scintillation counter after 2.5 to 12 hours of incubation/settling time at room temperature.
as §1

Binder	Ki [nM]
B1	0.0741
B2	0.234
B3	0.077
B4	0.0759
B5	0.163
B6	0.117
B7	0.0296
B8	0.085
B9	0.0761
B10	0.0573
B11	0.0608
B12	0.103
B13	0.0245
B14	0.0627
B15	0.0238
B16	0.0863
B17	0.0403

What follows are binders tested against T3, human glucagon receptor (human, UniProt P47871 26-477) (assay: SPA competition vs [125I]-Gcg, hGcgR membranes).
T3 construct: whole, on cells; also called hGCGR; hGcgR
Method: The binding buffer contains 25 mM 4-(2-hydroxyethyl)-1-piperazineethanesulfonic acid (HEPES), pH 7.4, 2.5 mM CaCl₂, 1 mM MgCh, 0.1% (w/v) bacitracin (Research Products), 0.003% (w/v) Polyoxyethylenesorbitan monolaurate (TWEEN®-20), and Roche Complete™ Protease Inhibitors without EDTA. […] Plates are sealed and mixed on a plate shaker (setting 6) for 1 minute and read with a PerkinElmer Trilux MicroBeta® scintillation counter after 12 hours of incubation/settling time at room temperature.
Data are analyzed using four-parameter (curve maximum, curve minimum, IC₅₀, Hill slope) nonlinear regression routines (Genedata Screener, version 12.0.4, Genedata AG, Basal, Switzerland). […] Values for Kᵢ are reported as the geometric mean, with error expressed as the standard error of the mean (SEM) and n is equal to the number of independent replicates (determined in assays performed on different days).

T3 sequence (P47871 26-477): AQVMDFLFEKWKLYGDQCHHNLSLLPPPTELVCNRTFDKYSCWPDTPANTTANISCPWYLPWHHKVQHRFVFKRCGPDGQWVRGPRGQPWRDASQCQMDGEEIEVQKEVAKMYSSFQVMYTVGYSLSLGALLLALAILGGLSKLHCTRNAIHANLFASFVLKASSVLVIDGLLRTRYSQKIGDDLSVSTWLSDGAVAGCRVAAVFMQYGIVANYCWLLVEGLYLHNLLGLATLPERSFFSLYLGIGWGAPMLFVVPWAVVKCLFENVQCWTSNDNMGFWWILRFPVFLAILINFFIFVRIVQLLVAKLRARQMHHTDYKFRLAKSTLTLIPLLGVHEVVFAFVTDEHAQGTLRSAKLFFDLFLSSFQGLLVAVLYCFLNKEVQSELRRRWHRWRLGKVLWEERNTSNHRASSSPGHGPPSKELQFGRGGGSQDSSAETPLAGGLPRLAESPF

Binder	Ki [nM]
B1	51.7
B2	412
B3	868
B4	458
B5	223
B6	264
B7	42
B8	274
B9	217
B10	196
B11	174
B12	611
B13	345
B14	625
B15	1.18
B16	3.82
B17	8.29
